In patent US20220031857A1 (OSSIANIX, published 2022):
One block for each binder: values may come before it.

Columns and labels:
[1] = biological target: T1, recombinant human TfR1 (transferrin receptor 1) (human, UniProt P02786 89-760); test: ELISA, plate coated with 1 µg/ml recombinant human TfR1, purified VNAR-Fc titrated, 4-parameter fit
T1 construct: Bought recombinant His-tagged protein; also called hTfR1
Procedure: (§1) It was previously reported that affinity might play a crucial role in TfR1 mediated brain penetration. […] Affinity estimation and unspecific binding was initially assessed using ELISA for human and mouse TfR1.
(§2) The next day the plates were blocked with […] with 0.1% Tween20 (PBST) for 1 hour at room temperature. Transfected cells were spun down at 2000 rpm for 10 minutes and the collected supernatant was mixed with milk in PBST to a final 2.5% concentration and incubated for 30 minutes. 100 μl of blocked supernatant was transferred into coated plates and incubated for 1 hour. […] The plates were washed and developed with TMB detection solution before stopping the reaction with 1% HCl. Absorbance was measured at 450 nm. A VNAR-Fc at know concentration was used for standard curve to calculate VNAR-Fc expression level.

[2] = biological target: T2, recombinant mouse TfR1 (transferrin receptor 1) (mouse, UniProt Q62351 89-763); test: SPR (Biacore), single-cycle kinetics, His-tagged TfR1 captured, VNAR-Fc injected
T2 construct: Bought recombinant His-tagged protein; also called mTfR1
T2 sequence (Q62351 89-763 limits assumed): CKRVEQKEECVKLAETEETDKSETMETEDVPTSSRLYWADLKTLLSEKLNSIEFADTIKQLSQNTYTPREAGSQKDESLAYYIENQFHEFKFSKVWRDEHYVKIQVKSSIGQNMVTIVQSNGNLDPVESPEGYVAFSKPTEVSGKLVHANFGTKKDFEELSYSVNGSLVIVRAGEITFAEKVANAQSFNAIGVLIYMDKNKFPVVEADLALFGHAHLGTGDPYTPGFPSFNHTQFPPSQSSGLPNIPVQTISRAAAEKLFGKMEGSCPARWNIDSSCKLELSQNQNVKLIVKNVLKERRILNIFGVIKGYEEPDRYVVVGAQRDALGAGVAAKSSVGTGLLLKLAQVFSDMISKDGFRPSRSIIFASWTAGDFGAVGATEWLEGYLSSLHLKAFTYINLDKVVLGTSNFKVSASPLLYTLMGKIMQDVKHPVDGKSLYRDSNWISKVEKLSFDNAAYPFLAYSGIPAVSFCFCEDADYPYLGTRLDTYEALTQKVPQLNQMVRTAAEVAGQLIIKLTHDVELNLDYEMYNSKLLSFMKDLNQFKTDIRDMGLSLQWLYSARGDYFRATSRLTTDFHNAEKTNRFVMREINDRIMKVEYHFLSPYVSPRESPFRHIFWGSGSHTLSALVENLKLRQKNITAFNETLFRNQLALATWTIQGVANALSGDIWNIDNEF
Procedure: (§3) Binding kinetics of VNAR-Fcs was determined by surface plasmon resonance (Biacore T200, GE Healthcare). CM5 chips were coated with anti-His antibodies (His Capture Kit, GE Healthcare) as recommended by the manufacturer and human or mouse his-tagged TfR1 (SinoBiological) at 10 ug/mL in HBS-EP+ (GE Healthcare) was captured at flow rate 10 ul/min (contact time 120 s). […] A flow cell without TfR1 captured served as a reference. Sensorgrams were fitted and kinetic constants were determined using Biacore T200 Evaluation software. Chips were regenerated in 10 mM Glycine-HCl, pH 1.5 (contact time: 120 s at flow rate 30 ul/min).

[3] = biological target: T1, recombinant human TfR1 (transferrin …); test: as above
Procedure: as §3

human serum albumin = biological target: T3, human serum albumin (human, UniProt P02768 25-609); test: ELISA with Expi293 culture medium used directly, coated HSA, anti-Fc detection
T3 construct: Negative control protein; also called HSA
T3 sequence (P02768 25-609 limits assumed): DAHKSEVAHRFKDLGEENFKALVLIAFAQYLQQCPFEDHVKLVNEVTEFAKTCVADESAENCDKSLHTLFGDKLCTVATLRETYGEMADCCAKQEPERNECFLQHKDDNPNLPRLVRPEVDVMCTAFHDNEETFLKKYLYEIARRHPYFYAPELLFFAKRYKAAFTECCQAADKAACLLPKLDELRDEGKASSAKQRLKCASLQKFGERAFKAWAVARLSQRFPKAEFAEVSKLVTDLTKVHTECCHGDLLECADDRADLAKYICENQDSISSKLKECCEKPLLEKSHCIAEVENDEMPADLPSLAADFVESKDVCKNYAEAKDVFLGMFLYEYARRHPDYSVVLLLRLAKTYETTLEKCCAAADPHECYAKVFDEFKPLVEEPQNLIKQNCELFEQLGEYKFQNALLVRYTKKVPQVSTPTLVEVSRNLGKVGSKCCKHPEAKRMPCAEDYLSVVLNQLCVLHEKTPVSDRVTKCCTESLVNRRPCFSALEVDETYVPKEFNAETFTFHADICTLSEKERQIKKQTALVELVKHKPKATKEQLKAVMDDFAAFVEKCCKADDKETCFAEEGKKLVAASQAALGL
Procedure: (§4) FIG. 6. […] The VNAR-Fc fusion proteins were transiently expressed using Expi293 expression system. VNAR-Fc constructs contained signal peptide sequence in order to be secreted. Cell growth media was used directly in ELISA. HSA and mouse TfR2 were used as negative controls for unspecific binding. A clone in position 52 represents untransfected cells. Total Fc concentration was measured with capture and detection anti-Fc antibody pair using irrelevant VNAR-Fc at known concentration for standard curve.
as §2

[4] = biological target: T2, recombinant mouse TfR1 (transferrin …); test: ELISA, plate coated with 1 µg/ml recombinant mouse TfR1, purified VNAR-Fc titrated, 4-parameter fit
Procedure: as §1, §2

[5] = biological target: T2, recombinant mouse TfR1 (transferrin …); test: ELISA on mouse TfR1
[6] = biological target: T2, recombinant mouse TfR1 (transferrin …); test: Octet, mouse TfR1 on anti-His biosensors, analyte 10 nM, PBS pH 6.0
Procedure: (§5) Binding kinetics of selected VNAR-Fcs to mouse TfR1 at pH 7.2 and pH 6.0 was measured by […] (Octet). Mouse TfR1 (10 μg/ml) was immobilised on anti-His biosensors and the binding kinetics of VNAR-Fcs and 8D3 antibody (10 nM) was measured at pH 7.2 and pH 6.0 in phosphate buffered saline (PBS) (Table 8).

[7] = biological target: T1, recombinant human TfR1 (transferrin …); test: Octet, human TfR1 immobilised; 8D3 as first antibody, which does not bind human TfR1 (grey column); white cell
Procedure: FIGS. 15A and 15B. Epitope binning by cross-competition binding to mouse and human TfR1. VNAR-Fc fusion proteins were tested for cross-blocking in a pairwise manner against mouse (A) and human TfR1 (B) immobilised on biosensors using the Octet platform.
A series of biochemical parameters was examined to further characterize the panel VNAR to TfR1 obtained from in vivo phage display selections. Epitope binning experiments were performed to assess whether the VNARs could compete against each other for binding to either the mouse or human TfR1. […] Because each VNAR binds via a unique CDR3 region with a different structural topography, steric interactions could be important efficient transcytosis.

[8] = biological target: T2, recombinant mouse TfR1 (transferrin …); test: Octet, mouse TfR1 on anti-His biosensors, analyte 10 nM, PBS pH 7.2
Procedure: as §5

recombinant mouse TfR2 = biological target: T4, recombinant mouse TfR2 (mouse, UniProt Q9JKX3 103-798, limits assumed); test: ELISA with Expi293 culture medium used directly, coated mouse TfR2, anti-Fc detection
T4 construct: Negative control protein
T4 sequence (looked up): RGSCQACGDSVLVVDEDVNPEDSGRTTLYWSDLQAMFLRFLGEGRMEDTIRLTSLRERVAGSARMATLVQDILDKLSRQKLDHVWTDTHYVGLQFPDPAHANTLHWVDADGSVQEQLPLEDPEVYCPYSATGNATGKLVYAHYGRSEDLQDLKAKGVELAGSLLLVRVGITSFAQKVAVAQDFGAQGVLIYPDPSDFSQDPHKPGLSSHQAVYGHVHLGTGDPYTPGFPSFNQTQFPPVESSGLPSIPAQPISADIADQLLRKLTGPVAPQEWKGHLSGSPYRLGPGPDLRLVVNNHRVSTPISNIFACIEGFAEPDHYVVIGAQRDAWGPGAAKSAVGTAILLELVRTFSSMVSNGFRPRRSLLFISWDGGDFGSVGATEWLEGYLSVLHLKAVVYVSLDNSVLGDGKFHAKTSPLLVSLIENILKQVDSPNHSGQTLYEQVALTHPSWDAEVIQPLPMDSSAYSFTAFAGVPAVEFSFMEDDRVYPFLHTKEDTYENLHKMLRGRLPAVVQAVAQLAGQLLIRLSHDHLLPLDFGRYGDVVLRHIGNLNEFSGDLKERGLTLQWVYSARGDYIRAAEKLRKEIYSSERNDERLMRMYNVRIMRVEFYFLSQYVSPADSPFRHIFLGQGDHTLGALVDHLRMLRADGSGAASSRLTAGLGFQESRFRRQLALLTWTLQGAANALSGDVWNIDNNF
Procedure: as §4, §2

[9] = biological target: T2, recombinant mouse TfR1 (transferrin …); test: SPR (Biacore), single-cycle kinetics, His-tagged TfR1 captured, VNAR-Fc injected; SPR single cycle kinetics, immobilised mouse TfR1, VNAR-Fc up to 250 nM
Procedure: as §3

T1 sequence (P02786 89-760 limits assumed): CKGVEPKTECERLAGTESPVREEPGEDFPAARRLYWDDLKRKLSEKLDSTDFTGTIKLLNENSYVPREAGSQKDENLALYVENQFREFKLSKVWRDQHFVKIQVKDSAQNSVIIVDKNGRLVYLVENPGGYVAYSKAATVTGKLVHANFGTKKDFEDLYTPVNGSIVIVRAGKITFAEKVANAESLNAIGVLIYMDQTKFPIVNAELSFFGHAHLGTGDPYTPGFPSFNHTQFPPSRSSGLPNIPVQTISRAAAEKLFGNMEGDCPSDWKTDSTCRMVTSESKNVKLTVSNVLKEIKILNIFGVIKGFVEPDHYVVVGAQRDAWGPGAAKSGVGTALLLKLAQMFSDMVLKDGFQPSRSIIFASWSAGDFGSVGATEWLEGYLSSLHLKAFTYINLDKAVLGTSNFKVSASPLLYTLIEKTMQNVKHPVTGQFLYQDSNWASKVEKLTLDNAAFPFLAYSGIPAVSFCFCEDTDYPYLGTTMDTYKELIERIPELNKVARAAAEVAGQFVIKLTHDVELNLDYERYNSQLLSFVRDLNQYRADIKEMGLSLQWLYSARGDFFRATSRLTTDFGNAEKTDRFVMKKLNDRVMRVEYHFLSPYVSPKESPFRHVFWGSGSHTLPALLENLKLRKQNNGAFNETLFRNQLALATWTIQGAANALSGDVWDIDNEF

B3: Clone 10 VNAR-Fc fusion protein (Fc fusion)
chain: ARVDQTPQTITKETGESLTINCVLRDSNCALSSTYWYRKKSGSTNEENISKGGRYVETVNSGSKSFSLRINDLTVEDSGTYRCNVVQYPSYNNYFWCDVYGDGTAVTVNA
notes: Bivalent VNAR-Fc; also called clone 10-Fc; Clone 10-hFc; not shown: glycine/serine linker (GxSx)n extending the hinge; human IgG1 Fc (hinge, CH2, CH3) of pFUSE-hIgG1e3-Fc2; G236 also deleted
EC50 [1]: 2.45 nM | Kd [2]: 0.408 nM | koff [2]: 0.000116 s⁻¹ | kon [2]: 285000 M⁻¹ s⁻¹ | Kd [3]: 0.523 nM | koff [3]: 0.00016 s⁻¹ | kon [3]: 306000 M⁻¹ s⁻¹ | binding result (human serum albumin): no binding | EC50 [4]: 11.9 nM | EC50 [5]: 2.96 nM | Kd [6]: 0.419 nM | koff [6]: 0.0003 s⁻¹ | kon [6]: 715000 M⁻¹ s⁻¹ | Octet signal as second antibody after 8D3 [7]: 0.546 | Kd [8]: 0.0703 nM | koff [8]: 4.43e-05 s⁻¹ | kon [8]: 630000 M⁻¹ s⁻¹ | binding result (recombinant mouse TfR2): no binding

B4: IDUA-clone 10-hFc (Fc fusion)
chain (part 1 of 2): ARVDQTPQTITKETGESLTINCVLRDSNCALSSTYWYRKKSGSTNEENISKGGRYVETVNSGSKSFSLRINDLTVEDSGTYRCNVVQYPSYNNYFWCDVYGDGTAVTVNA
chain (part 2 of 2): APHLVHVDAARALWPLRRFWRSTGFCPPLPHSQADQYVLSWDQQLNLAYVGAVPHRGIKQVRTHWLLELVTTRGSTGRGLSYNFTHLDGYLDLLRENQLLPGFELMGSASGHFTDFEDKQQVFEWKDLVSSLARRYIGRYGLAHVSKWNFETWNEPDHHDFDNVSMTMQGFLNYYDACSEGLRAASPALRLGGPGDSFHTPPRSPLSWGLLRHCHDGTNFFTGEAGVRLDYISLHRKGARSSISILEQEKVVAQQIRQLFPKFADTPIYNDEADPLVGWSLPQPWRADVTYAAMVVKVIAQHQNLLLANTTSAFPYALLSNDNAFLSYHPHPFAQRTLTARFQVNNTRPPHVQLLRKPVLTAMGLLALLDEEQLWAEVSQAGTVLDSNHTVGVLASAHRPQGPADAWRAAVLIYASDDTRAHPNRSVAVTLRLRGVPPGPGLVYVTRYLDNGLCSPDGEWRRLGRPVFPTAEQFRRMRAAEDPVAAAPRPLPAGGRLTLRPALRLPSLLLVHVCARPEKPPGQVTRLRALPLTQGQLVLVWSDEHVGSKCLWTYEIQFSQDGKAYTPVSRKPSTFNLFVFSPDTGAVSGSYRVRALDYWARPGPFSDPVPYLEVPVPRGPPSPGNP
notes: Order of the parts follows the text's 'VNAR-Fc-IDUA'; Made in CHO cells; also called clone 10 VNAR-Fc-IDUA fusion protein; not shown: human Fc fragment (hFc)
EC50 [5]: 8.33 nM

B5: Clone 12 VNAR-Fc fusion protein (Fc fusion)
chain: ARVDQTPQTITKETGESLTINCVLRDSICALSSTHWYRKKSGSTNEESISKGGRYVETVNSGSKSFSLRINDLTVEDSGTYRCKVVRSGVGPCWADVYGGGTAVTVNA
notes: Bivalent VNAR-Fc; not shown: glycine/serine linker (GxSx)n extending the hinge; human IgG1 Fc (hinge, CH2, CH3) of pFUSE-hIgG1e3-Fc2; G236 also deleted
EC50 [1]: 151 nM | binding result (human serum albumin): no binding | EC50 [4]: 1560 nM | Octet signal as second antibody after 8D3 [7]: 0.403 | binding result (recombinant mouse TfR2): no binding

Results, then the binder that gave them:

EC50 [1]: 4.67 nM | Kd [2]: 3.34 nM | koff [2]: 0.00025 s⁻¹ | kon [2]: 74700 M⁻¹ s⁻¹ | Kd [3]: 1.87 nM | koff [3]: 0.000123 s⁻¹ | kon [3]: 66000 M⁻¹ s⁻¹ | binding result (human serum albumin): no binding | EC50 [4]: 15.9 nM | EC50 [5]: 4.83 nM | Kd [6]: 0.541 nM | koff [6]: 0.00036 s⁻¹ | kon [6]: 666000 M⁻¹ s⁻¹ | Octet signal as second antibody after 8D3 [7]: 0.329 | Kd [8]: 0.363 nM | koff [8]: 0.000292 s⁻¹ | kon [8]: 804000 M⁻¹ s⁻¹ | binding result (recombinant mouse TfR2): no binding
B1: Clone 1 VNAR-Fc fusion protein (Fc fusion)
chain: ARVDQTPQTITKETGESLTINCVLRDNNCALSTTYWYRKKSGSTNEENISKGGRYVETVNSGSKSFSLKINDLTVEDSGTYRCNVRDVQACGNDWVWLDVYGGGTVVTVNA
notes: Bivalent VNAR-Fc; also called clone 1-Fc; not shown: glycine/serine linker (GxSx)n extending the hinge; human IgG1 Fc (hinge, CH2, CH3) of pFUSE-hIgG1e3-Fc2; G236 also deleted

EC50 [5]: 7.24 nM
B2: IDUA-clone 1-hFc (Fc fusion)
chain (part 1 of 2): ARVDQTPQTITKETGESLTINCVLRDNNCALSTTYWYRKKSGSTNEENISKGGRYVETVNSGSKSFSLKINDLTVEDSGTYRCNVRDVQACGNDWVWLDVYGGGTVVTVNA
chain (part 2 of 2): APHLVHVDAARALWPLRRFWRSTGFCPPLPHSQADQYVLSWDQQLNLAYVGAVPHRGIKQVRTHWLLELVTTRGSTGRGLSYNFTHLDGYLDLLRENQLLPGFELMGSASGHFTDFEDKQQVFEWKDLVSSLARRYIGRYGLAHVSKWNFETWNEPDHHDFDNVSMTMQGFLNYYDACSEGLRAASPALRLGGPGDSFHTPPRSPLSWGLLRHCHDGTNFFTGEAGVRLDYISLHRKGARSSISILEQEKVVAQQIRQLFPKFADTPIYNDEADPLVGWSLPQPWRADVTYAAMVVKVIAQHQNLLLANTTSAFPYALLSNDNAFLSYHPHPFAQRTLTARFQVNNTRPPHVQLLRKPVLTAMGLLALLDEEQLWAEVSQAGTVLDSNHTVGVLASAHRPQGPADAWRAAVLIYASDDTRAHPNRSVAVTLRLRGVPPGPGLVYVTRYLDNGLCSPDGEWRRLGRPVFPTAEQFRRMRAAEDPVAAAPRPLPAGGRLTLRPALRLPSLLLVHVCARPEKPPGQVTRLRALPLTQGQLVLVWSDEHVGSKCLWTYEIQFSQDGKAYTPVSRKPSTFNLFVFSPDTGAVSGSYRVRALDYWARPGPFSDPVPYLEVPVPRGPPSPGNP
notes: Order of the parts follows the text's 'VNAR-Fc-IDUA'; Made in CHO cells; also called clone 1 VNAR-Fc-IDUA fusion protein; not shown: human Fc fragment (hFc)

EC50 [1]: 257 nM | Kd [3]: 7.22 nM | koff [3]: 0.000684 s⁻¹ | kon [3]: 94700 M⁻¹ s⁻¹ | Kd [9]: 18.3 nM | koff [9]: 0.00294 s⁻¹ | kon [9]: 161000 M⁻¹ s⁻¹ | binding result (human serum albumin): no binding | EC50 [4]: 1530 nM | Octet signal as second antibody after 8D3 [7]: 0.609 | binding result (recombinant mouse TfR2): no binding
B6: Clone 39 VNAR-Fc fusion protein (Fc fusion)
chain: ARVDQTPQTITKETGESLTINCVLRDSNCALSSTLWYRTKSGSRNEESISKGGRYVETVNSGSKSFSLKINDLTVEDSGTYRCNVQGMVYDGSSFWWCDVYGDSTAVTVNA
notes: as for B5
